Measured values: paper PMC9684487, “Human antibody recognition and neutralization mode on the NTD and RBD domains of SARS-CoV-2 spike protein” (Scientific Reports, 2022)

B1: 7G7/κ (antibody, V domains shown)
VH: QVQLVESGGGVVQPGRSLRLSCIASGFTFRNYAMYWVRQAPGKGLEWVAVIWYDGSNKFYTDSVKGRFTISRDNSKNSLYLQMNSLRAEDTAVYFCARDQGFGDNYYYYGMDVWGQGTTVTVSS
VL: SYELTQPPSVSVSPGQTARISCSGDALPKEYAYWYQQKPGQAPVLVIYKDSERPSGIPERFSGSSSGTTVTLTISGVQAEDEADYYCQLADSSMHYVVFGGGTKLTVL
notes: also called 7G7-IgG1κ; 7G7/κ (IgG1/Igκ); source: Expi293F, cotransfected with IgH and IgL vectors, purified (HiTrap Protein G)
B2: 7G7/λ (antibody, V domains shown)
VH: B1 VH
VL: B1 VL
notes: also called 7G7 (7G7/λ); IgG1/Igλ2; source: Expi293F, cotransfected with IgH and IgL vectors, purified (HiTrap Protein G)
B3: NIBIC-71 (antibody, V domains shown)
VH: EVQLVESGGGLIQPGGSLRLSCEASGLIVSSNYMTWVRQAPGKGLEWVSVIYSGGSTFYADSVKGRFTVSRDNSKNTLYLQMNNLSPEDTAVYYCARDLGPYGVDVWGQGTTVTVSS
VL: AIQLTQSPSSLSASVGDRVTITCRASQGISSYLAWYQQTPGKAPKLLIYAASTLQSGVPSRFSGSGSGTDFTLTISSLQPEDFATYYCQQLNSYPPFTFGPGTKVDIK
notes: also called recombinant mAb NIBIC-71

What was measured:
Settings in all cases: both partners purified
[1] = molecular target: T1, recombinant S ECD protein (aa 13–1208) of SARS-CoV-2 (SARS-CoV-2, UniProt P0DTC2); assay: ELISA
T1 construct: also called S protein; extracellular domain of the S protein

[2] = molecular target: NTD + RBD (aa 13–541) of the SARS-CoV-2 S protein (SARS-CoV-2, wild type (Wuhan-Hu-1 …, UniProt P0DTC2)); assay: ELISA
[3] = molecular target: T2, S1 (aa 13–685) of the SARS-CoV-2 S protein (SARS-CoV-2, wild type (Wuhan-Hu-1 …, UniProt P0DTC2)); assay: ELISA
T2 construct: also called subunit 1

[4] = molecular target: T3, SARS-CoV-2 S protein (ECD, His and Flag Tag) (GenScript) (SARS-CoV-2, wild type (Wuhan-Hu-1 …, UniProt P0DTC2)); assay: SPR
T3 construct: source: bought: GenScript

| Binder | binding result [1] | binding result [2] | binding result [3] | Kd [4] [nM] | koff [4] [s⁻¹] | kon [4] [M⁻¹ s⁻¹] |
| --- | --- | --- | --- | --- | --- | --- |
| B1 | binds | binds | binds | – | – | – |
| B2 | binds | – | – | – | – | – |
| B3 | – | – | – | 1.33 | 6.35e-05 | 47700 |
